{"source": "paper PMC9751095", "about": "“The mitochondrial chaperone TRAP1 regulates F-ATP synthase channel formation” (Cell Death and Differentiation, 2022)", "binders": {"B1": {"name": "purified recombinant human cyclophilin D (enzyme)", "chain": "not shown", "notes": "human cyclophilin D, cDNA from a human placenta library; called 'recombinant mature human' for the SPR; also called CyPD; CypD; source: E. coli BL21(DE3)pLysS (plasmid pSUMO-Cyclophilin D), purified"}}, "target": "T1, recombinant mature human OSCP (human, UniProt P48047 24-213)", "T1 construct": "human F-ATP synthase subunit OSCP, mature protein", "T1 sequence (looked up)": "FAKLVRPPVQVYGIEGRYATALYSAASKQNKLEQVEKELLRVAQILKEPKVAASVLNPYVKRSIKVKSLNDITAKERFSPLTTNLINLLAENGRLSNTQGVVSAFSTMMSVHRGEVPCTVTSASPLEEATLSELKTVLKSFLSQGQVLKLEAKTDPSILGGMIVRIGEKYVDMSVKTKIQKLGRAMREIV", "assay": "SPR; Biacore T100, CM5 chip, CyPD immobilized by amine coupling (800-1200 RU); OSCP injected at increasing concentrations; Langmuir interaction model", "settings": "both partners purified", "data": [{"binder": "B1", "values": [{"measurement": "binding result", "value": "binds"}]}]}
